Where a chain is given by its changes, count along the chain named. Names and notes keep the numbering of the source. Like-named read-outs stand apart in the source and are kept apart here. One block for each binder: values may come before it.
Experiments:
[1] = molecular target: T1, Neonatal Fc receptor (FcRn) on CHO-FcRnGPI cells; assay: flow cytometry on CHO-FcRnGPI cells, pH 6.4
T1 construct: whole, on cells; also called FcRn receptor
Experimental: (§1) CHO-FcRnGPI cells (Stable FcRn receptor expressor) and CHO-pBudl l cells (non-FcRn expressor) were aliquotted into 96-well plates at 1×10⁵ cells/well. Cells were resuspended in 150 μl FACS buffer. Anti-c-Met Ab and half-Ig binding proteins were diluted to 100 μg/ml in FACS buffer pH 6.4 and pH 7.4. 30 μl of diluted antibody or half-Ig binding protein was added to each well and incubated on ice for 1 hour. Following 2 washes with FACS buffer, 50 μl of secondary antibody R-phycoerythrin-conjugated AfiniPure F(ab′)₂ Fragment goat anti-human IgG (Jackson ImmunoResearch®, West Grove, Pa.) diluted in FACS buffer pH 6.4 or pH7.4 was added. The mixture was incubated for 30 min on ice. The cells were resuspended in 100 μl PBS with 1% FBS (Invitrogen®, Carlsbad, Calif.) and 2 μg/ml propidium iodide (Invitrogen®, Carlsbad, Calif.) of the corresponding pH. Final FACS data were acquired on a FACScan (Becton Dickinson, Franklin Lakes, N.J.).

[2] = molecular target: T1, Neonatal Fc receptor (FcRn) on …; assay: flow cytometry on CHO-FcRnGPI cells, pH 6.4; remark: listed apart in the source
Experimental: as §1

recombinant human IL-18 [3] = molecular target: T2, recombinant human IL-18 (human, UniProt Q14116 37-193); assay: cell-based or functional assay
human IL-12 [4] = molecular target: T3, human IL-12 (human, UniProt P29459 23-219; P29460 23-328); assay: cell-based or functional assay
T3 sequence (looked up) 1: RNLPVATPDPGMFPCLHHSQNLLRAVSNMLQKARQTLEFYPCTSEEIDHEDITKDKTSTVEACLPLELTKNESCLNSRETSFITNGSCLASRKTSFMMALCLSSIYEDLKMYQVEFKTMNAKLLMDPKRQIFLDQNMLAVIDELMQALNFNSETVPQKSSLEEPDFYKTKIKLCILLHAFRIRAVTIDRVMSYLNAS
T3 sequence (looked up) 2: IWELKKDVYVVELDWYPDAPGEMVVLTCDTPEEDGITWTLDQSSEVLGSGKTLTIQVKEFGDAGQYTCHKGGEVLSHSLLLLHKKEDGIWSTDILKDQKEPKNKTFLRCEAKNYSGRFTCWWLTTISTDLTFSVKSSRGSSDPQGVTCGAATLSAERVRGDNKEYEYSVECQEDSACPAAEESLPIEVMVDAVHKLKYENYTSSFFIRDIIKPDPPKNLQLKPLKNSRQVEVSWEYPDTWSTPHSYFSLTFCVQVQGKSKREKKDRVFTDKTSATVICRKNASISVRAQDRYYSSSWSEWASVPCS

recombinant human IL-18 [5] = molecular target: T2, recombinant human IL-18; assay: SPR (BIAcore)
Experimental: (§2) The BIAcore® assay (BIAcore®, Inc, Piscataway, N.J.) determines the affinity of antibodies with kinetic measurements of on-rate and off-rate constants. Binding of antibodies to a target antigen (for example, a purified recombinant target antigen) is determined by surface plasmon resonance-based measurements with a BIAcore® 1000 or 3000 instrument (BIAcore® AB, Uppsala, Sweden) using running HBS-EP (10 mM HEPES [pH 7.4], 150 mM NaCl, 3 mM EDTA, and 0.005% surfactant P20) at 25° C. […] Unreacted moieties on the biosensor surface are blocked with ethanolamine. Modified carboxymethyl dextran surface in flowcell 2 and 4 is used as a reaction surface. Unmodified carboxymethyl dextran without goat anti-mouse IgG in flow cell 1 and 3 is used as the reference surface. For kinetic analysis, rate equations derived from the 1:1 Langmuir binding model are fitted simultaneously to association and dissociation phases of all eight injections (using global fit analysis) with the use of Biaevaluation 4.0.1 software. Purified antibodies are diluted in HEPES-buffered saline for capture across goat anti-mouse IgG specific reaction surfaces. […] The association and dissociation rate constants, kₒₙ (M⁻¹s⁻¹) and koff (s⁻¹), are determined under a continuous flow rate of 25 μl/minute. Rate constants are derived by making kinetic binding measurements at different antigen concentrations ranging from 10-200 nM. The equilibrium dissociation constant (M) of the reaction between antibodies and the target antigen is then calculated from the kinetic rate constants by the following formula: KD=koff/kₒₙ. Binding is recorded as a function of time and kinetic rate constants are calculated.

human IL-12 [6] = molecular target: T3, human IL-12; assay: SPR (BIAcore)
Experimental: as §2

Recombinant Human IL-1β [7] = molecular target: T4, Recombinant Human IL-1β (human, UniProt P01584 117-269); assay: SPR (BIAcore); *off-rate at the limit of dissociation after 1 hour
T4 construct: also called IL-1b
Experimental: The BIAcore® assay (BIAcore®, Inc, Piscataway, N.J.) determines the affinity of antibodies with kinetic measurements of on-rate and off-rate constants. Binding of antibodies to a target antigen (for example, a purified recombinant target antigen) is determined by surface plasmon resonance-based measurements with a BIAcore® 1000 or 3000 instrument (BIAcore® AB, Uppsala, Sweden) using running HBS-EP (10 mM HEPES [pH 7.4], 150 mM NaCl, 3 mM EDTA, and 0.005% surfactant P20) at 25° C. […] Unreacted moieties on the biosensor surface are blocked with ethanolamine. Modified carboxymethyl dextran surface in flowcell 2 and 4 is used as a reaction surface. Unmodified carboxymethyl dextran without goat anti-mouse IgG in flow cell 1 and 3 is used as the reference surface. […] The association and dissociation rate constants, kₒₙ (M⁻¹s⁻¹) and koff (s⁻¹), are determined under a continuous flow rate of 25 μl/minute. […] The equilibrium dissociation constant (M) of the reaction between antibodies and the target antigen is then calculated from the kinetic rate constants by the following formula: KD=koff/kₒₙ. Binding is recorded as a function of time and kinetic rate constants are calculated.

Recombinant Human IL-1β [8] = molecular target: T4, Recombinant Human IL-1β; assay: SPR (BIAcore)
Experimental: as §2

Recombinant Human IL-1β [9] = molecular target: T4, Recombinant Human IL-1β; assay: cell-based or functional assay

- EC50 [1]: 1.09 µM
B1: cMet-Mut1 (antibody, human IgG1, kappa)
heavy: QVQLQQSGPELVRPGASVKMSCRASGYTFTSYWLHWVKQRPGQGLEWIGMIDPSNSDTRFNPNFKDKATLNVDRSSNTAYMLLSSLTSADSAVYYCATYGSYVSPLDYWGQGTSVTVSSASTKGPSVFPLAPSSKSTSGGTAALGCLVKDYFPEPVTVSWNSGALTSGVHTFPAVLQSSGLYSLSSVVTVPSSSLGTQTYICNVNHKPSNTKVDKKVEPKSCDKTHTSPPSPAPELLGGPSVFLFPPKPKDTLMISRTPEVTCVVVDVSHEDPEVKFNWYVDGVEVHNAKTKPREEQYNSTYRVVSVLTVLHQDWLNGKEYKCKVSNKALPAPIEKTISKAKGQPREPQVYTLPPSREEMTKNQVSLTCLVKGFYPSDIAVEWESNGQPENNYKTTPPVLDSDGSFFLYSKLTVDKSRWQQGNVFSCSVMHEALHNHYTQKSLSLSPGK
light: DFMMSQSPSSLTVSVGEKVTVSCKSSQSLLYTSSQKNYLAWYQQKPGQSPKLLIYWASTRESGVPDRFTGSGSGTDFTLTITSVKADDLAVYYCQQYYAYPWTFGGGTKLELKRTVAAPSVFIFPPSDEQLKSGTASVVCLLNNFYPREAKVQWKVDNALQSGNSQESVTEQDSKDSTYSLSSTLTLSKADYEKHKVYACEVTHQGLSSPVTKSFNRGEC
notes: also called cMetHC-Mut1

- EC50 [1]: 1.23 µM
B2: cMet-Mut20 (antibody, human IgG1, kappa)
heavy: QVQLQQSGPELVRPGASVKMSCRASGYTFTSYWLHWVKQRPGQGLEWIGMIDPSNSDTRFNPNFKDKATLNVDRSSNTAYMLLSSLTSADSAVYYCATYGSYVSPLDYWGQGTSVTVSSASTKGPSVFPLAPSSKSTSGGTAALGCLVKDYFPEPVTVSWNSGALTSGVHTFPAVLQSSGLYSLSSVVTVPSSSLGTQTYICNVNHKPSNTKVDKKVEPKSCDKTHTSPPSPAPELLGGPSVFLFPPKPKDTLMISRTPEVTCVVVDVSHEDPEVKFNWYVDGVEVHNAKTKPREEQYNSTYRVVSVLTVLHQDWLNGKEYKCKVSNKALPAPIEKTISKAKGQPREPQVYTLPPSREEMTKNQVSLTCLVKGFYPSDIAVEWESNGQPENNYKTTPPVLDSDGSFFLYSDLTVDKSRWQQGNVFSCSVMHEALHNHYTQKSLSLSPGK
light: B1 light
notes: Half-Ig; CH3 K409D; 91.7 % half-Ig by SEC; also called cMetHC-Mut20

- EC50 [1]: 1980 µM
B3: cMet-Mut18 (antibody, human IgG1, kappa)
heavy: B2 heavy with F407R, D411K
light: B1 light
notes: Half-Ig; CH3 F405R; 94.5 % half-Ig by SEC; also called cMetHC-Mut18; cMet half Ig mut18

- EC50 [1]: 293 µM
B4: cMet-Mut10 (antibody, human IgG1, kappa)
heavy: B2 heavy with P398A, F407R
light: B1 light
notes: Half-Ig; CH3 P395A, F405R, K409D; 97.5 % half-Ig by SEC; also called cMetHC-Mut10; cMet half Ig mut10

- EC50 [1]: 0.63 µM
B5: cMet-Mut13 (antibody, human IgG1, kappa)
heavy: B2 heavy with P398A
light: B1 light
notes: Half-Ig; CH3 P395A, K409D; 94.9 % half-Ig by SEC; also called cMetHC-Mut13

- EC50 [2]: 0.035 µM
B6: cMet-Mut18-QL (antibody, human IgG1, kappa)
heavy: B2 heavy with T252Q, F407R, D411K, M430L
light: B1 light
notes: also called cMetHC-Mut18-QL

- EC50 [1]: 2.98 µM
B7: cMet-Mut19 (antibody, human IgG1, kappa)
heavy: B2 heavy with Y409R, D411K
light: B1 light
notes: Half-Ig; CH3 Y407R; 94.4 % half-Ig by SEC; also called cMetHC-Mut19

- EC50 [1]: 3290 µM
B8: cMet-Mut5 (antibody, human IgG1, kappa)
heavy: B2 heavy with P398A, F407R, Y409R
light: B1 light
notes: Half-Ig; CH3 P395A, F405R, Y407R, K409D; 97.2 % half-Ig by SEC; also called cMetHC-Mut5

- EC50 [1]: 4700 µM
B9: cMet-Mut11 (antibody, human IgG1, kappa)
heavy: B2 heavy with P398A, F407R, D411K
light: B1 light
notes: Half-Ig; CH3 P395A, F405R; 94.8 % half-Ig by SEC; also called cMetHC-Mut11; cMet half Ig mut11

- EC50 [2]: 0.015 µM
B10: cMet-Mut18-GTv2 (antibody, human IgG1, kappa)
heavy: B2 heavy with T309A, E382A, F407R, D411K, N436A
light: B1 light
notes: also called cMetHC-Mut18-GTv2

- EC50 [1]: 1.45 µM
B11: cMet-Mut14 (antibody, human IgG1, kappa)
heavy: B2 heavy with F407R, Y409R, D411K
light: B1 light
notes: Half-Ig; CH3 F405R, Y407R; 96.1 % half-Ig by SEC; also called cMetHC-Mut14; cMet half Ig mut14

- EC50 [1]: 1.13 µM
B12: cMet-Mut3 (antibody, human IgG1, kappa)
heavy: B2 heavy with T368F, L370F, P398A, F407R, Y409R
light: B1 light
notes: Half-Ig; CH3 T366F, L368F, P395A, F405R, Y407R, K409D; 82.4 % half-Ig by SEC; also called cMetHC-Mut3

- Neutralization of IL-18 IC50 (nM); IFN-γ release from KG-1 cells (recombinant human IL-18 [3]): 0.918 nM
- Neutralization of IL-12 IC50 (nM); IFN-γ release from PHA blast cells (human IL-12 [4]): 12.5 nM
- Kd (recombinant human IL-18 [5]): 0.00044 µM
- koff (recombinant human IL-18 [5]): 5.9e-05 s⁻¹
- kon (recombinant human IL-18 [5]): 130000 M⁻¹ s⁻¹
- Kd (human IL-12 [6]): 0.00013 µM
- koff (human IL-12 [6]): 5.1e-05 s⁻¹
- kon (human IL-12 [6]): 400000 M⁻¹ s⁻¹
B13: ½ IL12/IL18/PGE2 TVD (other)
heavy: EVTLRESGPALVKPTQTLTLTCTFSGFSLSKSVMGVSWIRQPPGKALEWLAHIYWDDDKYYNPSLKSRLTISKDTSKNQVVLTMTNMDPVDTATYYCARRGIRSAMDYWGQGTTVTVSSASTKGPEVQLVQSGTEVKKPGESLKISCKGSGYTVTSYWIGWVRQMPGKGLEWMGFIYPGDSETRYSPTFQGQVTISADKSFNTAFLQWSSLKASDTAMYYCARVGSGWYPYTFDIWGQGTMVTVSSASTKGPEVQLVQSGAEVKKPGASVKVSCKASGYTFTKYWLGWVRQAPGQGLEWMGDIYPGYDYTHYNEKFKDRVTLTTDTSTSTAYMELRSLRSDDTAVYYCARSDGSSTYWGQGTLVTVSSASTKGPSVFPLAPSSKSTSGGTAALGCLVKDYFPEPVTVSWNSGALTSGVHTFPAVLQSSGLYSLSSVVTVPSSSLGTQTYICNVNHKPSNTKVDKKVEPKSCDKTHTSPPSPAPELLGGPSVFLFPPKPKDTLMISRTPEVTCVVVDVSHEDPEVKFNWYVDGVEVHNAKTKPREEQYNSTYRVVSVLTVLHQDWLNGKEYKCKVSNKALPAPIEKTISKAKGQPREPQVYTLPPSREEMTKNQVSLTCLVKGFYPSDIAVEWESNGQPENNYKTTPPVLDSDGSFRLYSKLTVDKSRWQQGNVFSCSVMHEALHNHYTQKSLSLSPGK
light: DIVMTQSPDSLAVSLGERATINCKASQSVSNDVAWYQQKPGQPPKLLIYYASNRYTGVPDRFSGSGSGTDFTLTISSLQAEDVAVYYCQQDYNSPWTFGGGTKVEIKRTVAAPEIVMTQSPATLSVSPGERATLSCRASESISSNLAWYQQKPGQAPRLFIYTASTRATDIPARFSGSGSGTEFTLTISSLQSEDFAVYYCQQYNNWPSITFGQGTRLEIKRTVAAPDVLMTQTPLSLPVTPGEPASISCTSSQNIVHSNGNTYLEWYLQKPGQSPQLLIYKVSNRFSGVPDRFSGSGSGTDFTLKISRVEAEDVGVYYCFQVSHVPYTFGGGTKVEIKRTVAAPSVFIFPPSDEQLKSGTASVVCLLNNFYPREAKVQWKVDNALQSGNSQESVTEQDSKDSTYSLSSTLTLSKADYEKHKVYACEVTHQGLSSPVTKSFNRGEC
notes: Half TVD with hCg1-Mut18 (F405R, C226S, C229S); 78 % by SEC; also called Half IL12/IL18/PGE2 TVD; IL12/IL18/PGE2 TVD half-Ig

- koff (Recombinant Human IL-1β [7]): 6.4e-06 s⁻¹
- Kd (Recombinant Human IL-1β [8]): 0.053 nM
- kon (Recombinant Human IL-1β [8]): 120000 M⁻¹ s⁻¹
- IL-1β Neutralization Assay EC50 nM; IL-8 release from MRC5 cells (Recombinant Human IL-1β [9]): 0.155 nM
B14: ½ IL1b DA1 Fc (Fc fusion)
chain: EVQLLESGGGLVQPGGSLRLSCAASGFTFADEGMMWVRQAPGKGLEWVSRITYSGKNTYYADSVKGRFTISRDNSKNTLYLQMNSLRAEDTAVYYCAKYTGRILGHHLFDYWGQGTLVTVSSEPKSSDKTHTSPPSPAPELLGGPSVFLFPPKPKDTLMISRTPEVTCVVVDVSHEDPEVKFNWYVDGVEVHNAKTKPREEQYNSTYRVVSVLTVLHQDWLNGKEYKCKVSNKALPAPIEKTISKAKGQPREPQVYTLPPSREEMTKNQVSLTCLVKGFYPSDIAVEWESNGQPENNYKTTPPVLDSDGSFRLYSKLTVDKSRWQQGNVFSCSVMHEALHNHYTQKSLSLSPGK
notes: Half domain antibody-Fc with Fc-Mut18; 82 % half-Ig by SEC; also called half IL1b DA1 Fc

- koff (Recombinant Human IL-1β [7]): 4.9e-06 s⁻¹
- Kd (Recombinant Human IL-1β [8]): 0.028 nM
- kon (Recombinant Human IL-1β [8]): 170000 M⁻¹ s⁻¹
B15: ½ IL1b DA2 Fc (Fc fusion)
chain: B14 chain with D31E, G33S, M34W, T52G, Y53Q, S54D, A61R, D62E, S63D, L104M
notes: Half domain antibody-Fc with Fc-Mut18; 83 % half-Ig by SEC; also called half IL1b DA2 Fc
